Holding throughout (experiment): SEC; SEC-HPLC of purified individual His6-tagged BMC-H (urea-purified fractions; EutM, CmcB and EutK also from the soluble fraction), Beckman Ultraspherogel SEC2000, 20 mM Tris-HCl, 300 mM NaCl, pH 7; size from calibration standards
A general note: SEC sorts molecules by how far they enter the pores of the column.

The target in data set [1] is CmcA, His6-tagged (Klebsiella pneumoniae (strain 342)).
In data set [2] the target is EutS, His6-tagged (Klebsiella pneumoniae (strain 342)).
Data set [3] addresses EutM, His6-tagged (Klebsiella pneumoniae (strain 342)).
For data set [4], the target named is CmcE, N-terminally His6-tagged (Klebsiella pneumoniae (strain 342)).
In data set [5] the target is PduU, N-terminally His6-tagged (Klebsiella pneumoniae (strain 342)) (UniProt A6TDE7).
Data set [6] deals with CmcC, His6-tagged (Klebsiella pneumoniae (strain 342)).
For data set [7], the target named is CmcB, His6-tagged (Klebsiella pneumoniae (strain 342)).
For data set [8], the target named is CmcE, C-terminally His6-tagged (Klebsiella pneumoniae (strain 342)).
Data set [9] deals with the molecule itself.

As usually defined, the stoichiometry N is a count of units in the complex or per binding partner.

Consider CmcA, His6-tagged (natural protein), for which the stoichiometry N in data set [1] was 6.

In data set [2], EutS, His6-tagged (natural protein) had a stoichiometry N of 6.

For the molecule “EutM, His6-tagged (from UniProt A0A377ZA59 1-64) (natural protein)”, in [3], the stoichiometry N is 6.

For “CmcE, N-terminally His6-tagged (natural protein)”, the stoichiometry N in [4] was found to be 6.

Turning to “PduU, N-terminally His6-tagged (from UniProt A6TDE7 1-116) (natural protein)”, the stoichiometry N in data set [5] was determined as 6.

Consider CmcC, His6-tagged (natural protein), for which the stoichiometry N in [6] is 6.

Consider CmcB, His6-tagged (natural protein), for which, in data set [7], the stoichiometry N is 6.

With “CmcE, C-terminally His6-tagged (natural protein)”, in data set [8], the stoichiometry N came to 6.

B1: PduJ, His6-tagged (natural protein, Klebsiella pneumoniae (strain 342), UniProt A6TDD7 1-91, looked up)
chain: MNNALGLVETKGLVGAIEAADAMVKSANVQLIGYEKIGSGLITVMVRGDVGAVKAAVDAGSAAASVVGEVKSSHVIPRPHSDVEAILPKSV
notes: PduJ, canonical BMC-H shell protein of the PDU microcompartment; theoretical monomer MW 9.2 kDa; not shown: His6, C-terminal, kept
In the case of B1, the “stoichiometry N” value in data set [9] came out at 6.

B2: PduA, His6-tagged (natural protein, Klebsiella pneumoniae (strain 342), UniProt A0ACD7U6D6 1-94, looked up)
chain: MQQEALGMVETKGLTAAIEAADAMVKSANVLLVGYERIGSGLVTVIVRGDVGAVKAATDAGAAAARHVGEVKAVHVIPRPHTDVEKILPKGNSQ
notes: PduA, canonical BMC-H shell protein of the PDU microcompartment; theoretical monomer MW 9.8 kDa; source: also co-expressed with a FLAG-tagged partner, in soluble lysate fraction and co-purified; not shown: His6, C-terminal, kept
As for B2, the “stoichiometry N” value in data set [9] worked out at 6.
